Data reported in patent publication US20260184782A1 (published 2026).

Experiments:
[1] = target: TIGIT55-05
[2] = target: TIGIT55-11
[3] = target: TIGIT55-01
[4] = target: TIGIT55-13
[5] = target: TIGIT55-14
[6] = target: TIGIT55-06

Kd [1]: 97.6 nM
Kd [2]: 327 nM
Kd [3]: 15.9 nM
Kd [4]: 112 nM
Kd [5]: 139 nM
Kd [6]: 153 nM
B1: hTIGIT (receptor)
chain: MMTGTIETTGNISAEKGGSIILQCHLSSTTAQVTQVNWEQQDQLLAICNADLGWHISPSFKDRVAPGPGLGLTLQSLTVNDTGEYFCIYHTYPDGTYTGRIFLEVLESSVAEHGARFQIP
